{"source": "paper doi:10.1101/335232", "about": "(bioRxiv, 2018)", "biological_target": "the molecule itself", "experiment": "SEC-MALS", "data": [{"protein": "Human apolipoprotein-D (apoD) from breast cyst fluid (natural protein, UniProt P05090 21-189, looked up, N-linked glycosylation at N45 and N78 (mature numbering)) QAFHLGKCPNPPVQENFDVNKYLGRWYEIEKIPTTFENGRCIQANYSLMENGKIKVLNQELRADGTVNQIEGEATPVNLTEPAKLEVKFSWFMPSAPYWILATDYENYALVYSCTCIIQLFHVDFAWILARNPNLPPETVDSLKNILTSNNIDVKKMTVTDQVNCPKLS", "values": [{"measurement": "stoichiometry N", "result": 4}]}]}
